Test results reported in patent US20170355730A1.
Starred links: 1 amine or outer side, 2 acyl side, 3 side chain; linkers in the order of their positions; H or OH if unused. Non-standard residues stand in square brackets, D forms with d. Primed or numbered codes have the meaning given here. No end group written: not given here. Trimesoyl = O=C(c1cc(C(=O)[*:2])cc(C(=O)[*:3])c1)[*:1]; dPhe(4-CN) = N#Cc1ccc(C[C@@H](N)C(=O)O)cc1; d(pT) = C[C@H](OP(=O)(O)O)[C@@H](N)C(=O)O; Phe(4-F) = N[C@@H](Cc1ccc(F)cc1)C(=O)O; 2Nal = N[C@@H](Cc1ccc2ccccc2c1)C(=O)O; Pip′ = L-homoproline (pipecolyl); D‑4‑Phe = not defined here; Pip = O=C(O)[C@@H]1CCCCN1; d4Phe = not defined here; Dap = NC[C@H](N)C(=O)O; βAla = NCCC(=O)O; Sar = CNCC(=O)O

Each binder was assayed against Pin1 (Example 6, construct not stated) (human) (UniProt Q13526) (assay: fluorescence anisotropy).

Kd | fold increase of Pin1 inhibitory activity on substitution of D-Phe for D-Ala | fold improvement of binding affinity against peptide 4 | Binder
900 nM |  |  | Trimesoyl-[dF][Phe(4-F)][dT][Pip][2Nal]RA[Dap]F[2Nal]RRRR[Dap]K (linker (positions not given here) via Trimesoyl; not fully specified (C-terminus, bridges); printed as bicyclo[Tm-(D-Phe-Fpa-D-Thr-Pip-Nal-Arg-Ala)-Dap-(Phe-Nal-Arg-Arg-Arg-Arg-Dap)]-Lys; also: FITC on C-terminal Lys side chain (FA labeling)) [peptide 11 (Table 18)]
870 nM |  |  | Trimesoyl-[d4Phe][Phe(4-F)][dhGlu][Pip][2Nal]RA[dF][Dap]F[2Nal]RRRR[Dap]K (linker (positions not given here) via Trimesoyl; not fully specified (bridges); printed as bicyclo[Tm-(D-4-Phe-Fpa-D-homoGlu-Pip-Nal-Arg-Ala-D-Phe)-Dap-(Phe-Nal-Arg-Arg-Arg-Arg-Dap)]-Lys; reading uncertain) [peptide 41 (Table 18)]
480 nM | 2 fold |  | Trimesoyl-P[Sar][dD][Pip′][2Nal]RR[dF][Dap]F[2Nal]RRRR[Dap]K-NH2 (linker (positions not given here) via Trimesoyl; not fully specified (some residues, bridges); printed as bicyclo[Tm-(Pro-Sar-D-Asp-Pip-Nal-Arg-Arg-D-Phe)-Dap-(Phe-Nal-Arg-Arg-Arg-Arg-Dap)]-Lys) [peptide 22 (Table 18)]
460 nM |  |  | Trimesoyl-[D‑4‑Phe][Phe(4-F)][dI][Pip′][2Nal]RA[dF][Dap]F[2Nal]RRRR[Dap]K (linker (positions not given here) via Trimesoyl; not fully specified (C-terminus, bridges); printed as bicyclo[Tm-(D-4-Phe-Fpa-D-Ile-Pip-Nal-Arg-Ala-D-Phe)-Dap-(Phe-Nal-Arg-Arg-Arg-Arg-Dap)]-Lys; reading uncertain) [peptide 39 (Table 18)]
1380 nM |  |  | Trimesoyl-[dF][Phe(4-F)][dT][Pip′][2Nal]RA[dF][Dap]RR[2Nal]FRR[Dap]K (linker (positions not given here) via Trimesoyl; not fully specified (C-terminus, bridges); printed as bicyclo[Tm-(D-Phe-Fpa-D-Thr-Pip-Nal-Arg-Ala-D-Phe)-Dap-(Arg-Arg-Nal-Phe-Arg-Arg-Dap)]-Lys) [peptide 43 (Table 18)]
3420 nM |  |  | Trimesoyl-P[Sar][dD][Pip′][2Nal]R[Dap]F[2Nal]RRRR[Dap]K-NH2 (linker (positions not given here) via Trimesoyl; not fully specified (some residues, bridges); printed as bicyclo[Tm-(Pro-Sar-D-Asp-Pip-Nal-Arg)-Dap-(Phe-Nal-Arg-Arg-Arg-Arg-Dap)]-Lys) [peptide 10 (Table 18)]
2170 nM |  |  | Trimesoyl-P[Sar][dD][Pip′][2Nal]RY[dA][Dap]F[2Nal]RRRR[Dap]K-NH2 (linker (positions not given here) via Trimesoyl; not fully specified (some residues, bridges); printed as bicyclo[Tm-(Pro-Sar-D-Asp-Pip-Nal-Arg-Tyr-D-Ala)-Dap-(Phe-Nal-Arg-Arg-Arg-Arg-Dap)]-Lys) [peptide 17 (Table 18)]
3100 nM |  |  | Trimesoyl-[dF][Phe(4-F)][dT][Pip′][2Nal]RA[dF][Dap][dR]R[dR]R[2Nal][dF][Dap]K (linker (positions not given here) via Trimesoyl; not fully specified (C-terminus, bridges); printed as bicyclo[Tm-(D-Phe-Fpa-D-Thr-Pip-Nal-Arg-Ala-D-Phe)-Dap-(D-Arg-Arg-D-Arg-Arg-Nal-D-Phe-Dap)]-Lys) [peptide 45 (Table 18)]
4830 nM |  |  | Trimesoyl-P[Sar][dD][Pip′][2Nal]R[βAla][βAla][Dap]F[2Nal]RRRR[Dap]K-NH2 (linker (positions not given here) via Trimesoyl; not fully specified (some residues, bridges); printed as bicyclo[Tm-(Pro-Sar-D-Asp-Pip-Nal-Arg-β-Ala-β-Ala)-Dap-(Phe-Nal-Arg-Arg-Arg-Arg-Dap)]-Lys) [peptide 15 (Table 18)]
1750 nM |  |  | Trimesoyl-P[Sar][dD][Pip′][2Nal]R[βAla][dA][Dap]F[2Nal]RRRR[Dap]K-NH2 (linker (positions not given here) via Trimesoyl; not fully specified (some residues, bridges); printed as bicyclo[Tm-(Pro-Sar-D-Asp-Pip-Nal-Arg-β-Ala-D-Ala)-Dap-(Phe-Nal-Arg-Arg-Arg-Arg-Dap)]-Lys) [peptide 14 (Table 18)]
450 nM |  |  | Trimesoyl-[dF][Phe(4-F)][dT][Pip′][2Nal]RA[dF][Dap]R[2Nal]RFRR[Dap]K (linker (positions not given here) via Trimesoyl; not fully specified (C-terminus, bridges); printed as bicyclo[Tm-(D-Phe-Fpa-D-Thr-Pip-Nal-Arg-Ala-D-Phe)-Dap-(Arg-Nal-Arg-Phe-Arg-Arg-Dap)]-Lys) [peptide 44 (Table 18)]
270 nM |  | 2 fold | Trimesoyl-[dF][Phe(4-F)][dT][Pip′][2Nal]RA[dF][Dap]F[2Nal]RRRR[Dap]K-NH2 (linker (positions not given here) via Trimesoyl; not fully specified (some residues, bridges); printed as bicyclo[Tm-(D-Phe-4-Fpa-D-Thr-Pip-Nal-Arg-Ala-D-Phe)-Dap-(Phe-Nal-Arg-Arg-Arg-Arg-Dap)]-Lys) [peptide 27 (Table 18)]
1750 nM |  |  | Trimesoyl-P[Sar][dD][Pip′][2Nal]RV[dA][Dap]F[2Nal]RRRR[Dap]K-NH2 (linker (positions not given here) via Trimesoyl; not fully specified (some residues, bridges); printed as bicyclo[Tm-(Pro-Sar-D-Asp-Pip-Nal-Arg-Val-D-Ala)-Dap-(Phe-Nal-Arg-Arg-Arg-Arg-Dap)]-Lys) [peptide 18 (Table 18)]
2360 nM |  |  | Trimesoyl-[dF][Phe(4-F)][dT][Pip′][2Nal]R[Dap]F[2Nal]RRRR[Dap]K-NH2 (linker (positions not given here) via Trimesoyl; not fully specified (some residues, bridges); printed as bicyclo[Tm-(D-Phe-Fpa-D-Thr-Pip-Nal-Arg)-Dap-(Phe-Nal-Arg-Arg-Arg-Arg-Dap)]-Lys) [peptide 12 (Table 18)]
980 nM |  |  | Trimesoyl-[dF][Phe(4-F)][dT][Pip′][2Nal]RA[dF][Dap]RRRR[2Nal]F[Dap]K (linker (positions not given here) via Trimesoyl; not fully specified (C-terminus, bridges); printed as bicyclo[Tm-(D-Phe-Fpa-D-Thr-Pip-Nal-Arg-Ala-D-Phe)-Dap-(Arg-Arg-Arg-Arg-Nal-Phe-Dap)]-Lys) [peptide 42 (Table 18)]
2490 nM |  |  | Trimesoyl-P[Sar][dD][Pip′][2Nal]RA[dA][dA][Dap]F[2Nal]RRRR[Dap]K-NH2 (linker (positions not given here) via Trimesoyl; not fully specified (some residues, bridges); printed as bicyclo[Tm-(Pro-Sar-D-Asp-Pip-Nal-Arg-Ala-D-Ala-D-Ala)-Dap-(Phe-Nal-Arg-Arg-Arg-Arg-Dap)]-Lys) [peptide 16 (Table 18)]
240 nM |  |  | [dA][Sar][d(pT)][Pip′][2Nal]YQK (lactam (positions not given here); not fully specified (C-terminus, bridges); printed as cyclo(D-Ala-Sar-D-pThr-Pip-Nal-Tyr-Gln)-Lys) [peptide 46 (Table 18)]
350 nM |  |  | Trimesoyl-[dPhe(4-CN)][Phe(4-F)][dT][Pip′][2Nal]RA[dF][Dap]F[2Nal]RRRR[Dap]K (linker (positions not given here) via Trimesoyl; not fully specified (C-terminus, bridges); printed as bicyclo[Tm-(D-4-CyanoPhe-Fpa-D-Thr-Pip-Nal-Arg-Ala-D-Phe)-Dap-(Phe-Nal-Arg-Arg-Arg-Arg-Dap)]-Lys) [peptide 38 (Table 18)]
590 nM |  |  | Trimesoyl-[D‑2‑Fpa][Phe(4-F)][dT][Pip′][2Nal]RA[dF][Dap]F[2Nal]RRRR[Dap]K (linker (positions not given here) via Trimesoyl; not fully specified (C-terminus, bridges); printed as bicyclo[Tm-(D-2-Fpa-Fpa-D-Thr-Pip-Nal-Arg-Ala-D-Phe)-Dap-(Phe-Nal-Arg-Arg-Arg-Arg-Dap)]-Lys) [peptide 35 (Table 18)]
390 nM |  |  | Trimesoyl-[D‑3‑Fpa][Phe(4-F)][dT][Pip′][2Nal]RA[dF][Dap]F[2Nal]RRRR[Dap]K (linker (positions not given here) via Trimesoyl; not fully specified (C-terminus, bridges); printed as bicyclo[Tm-(D-3-Fpa-Fpa-D-Thr-Pip-Nal-Arg-Ala-D-Phe)-Dap-(Phe-Nal-Arg-Arg-Arg-Arg-Dap)]-Lys) [peptide 36 (Table 18)]
